Holding throughout (type): in vitro ADME, human
One series deals with HLMs. Briefly: Chemical inhibition study of kurarinone metabolism (P1 formation) in HLMs. The conditions noted are these: kurarinone 20 μM in HLMs.
Substrate in series [1]: C=C(C)C(CC=C(C)C)Cc1c(O)cc(OC)c2c1O[C@H](c1ccc(O)cc1O)CC2=O
The series is described as follows: Enzyme kinetics of P1 formation from kurarinone in recombinant CYP2D6. The conditions noted are these: other: recombinant CYP2D6; kurarinone 1–200 μM; 37.0 °C. Here is the method:
(§1) Samples were prepared in a total volume of 200 μL, containing 0.3 mg/mL protein in human liver microsomes or 15 nM protein in recombinant human supersomes, probe substrates or 50 μM kurarinone, 10 mM MgCl2, 10 mM glucose-6-phosphate, and 1 unit/mL of glucose-6-phosphate dehydrogenase. The reactions were activated by adding NADPH following preincubation at 37°C for 5 min. The reactions were maintained at 37°C for 1 h and terminated by adding 200 μL ice-cold acetonitrile. The supernatant (10 μL) collected from the samples that were centrifuged (20,000 g, 20 min, 4°C) was injected into the HPLC system for analysis. Control incubations devoid of NADPH or kurarinone were performed parallelly to ensure that the produced metabolites were NADPH- or kurarinone-dependent.
(§2) Various concentrations of kurarinone (1–200 μM) were incubated with RLMs, MLMs, PLMs, RAMs, CYP1A2, and CYP2D6 to estimate kinetic parameters. The rest of the other conditions remained the same as described in Section 2.3. […] The apparent Km and Vmax values were calculated from nonlinear regression analysis of experimental data according to the Michaelis–Menten equation, and the results were represented graphically by Eadie–Hofstee plots. All incubations were carried out as triplicate independent experiments, and kinetic constants were recorded as mean ± SD.

Substrate in series [2]: C=C(C)C(CC=C(C)C)Cc1c(O)cc(OC)c2c1O[C@H](c1ccc(O)cc1O)CC2=O
Briefly: Enzyme kinetics of P1 formation from kurarinone in recombinant CYP1A2. Particulars: other: recombinant CYP1A2; kurarinone 1–200 μM; 37.0 °C. Here is the method:
as §1, §2

For `Cc1nc2c([nH]1)c(=O)n(C)c(=O)n2Cc1ccco1` [furafylline], in the series with HLMs, the “effect of selective CYP inhibitor on formation of P1 from kurarinone” value was “remarkably inhibited”.

B1: CYP2D6 (Homo sapiens) (protein)
chain: MGLEALVPLAVIVAIFLLLVDLMHRRQRWAARYPPGPLPLPGLGNLLHVDFQNTPYCFDQLRRRFGDVFSLQLAWTPVVVLNGLAAVREALVTHGEDTADRPPVPITQILGFGPRSQGVFLARYGPAWREQRRFSVSTLRNLGLGKKSLEQWVTEEAACLCAAFANHSGRPFRPNGLLDKAVSNVIASLTCGRRFEYDDPRFLRLLDLAQEGLKEESGFLREVLNAVPVLLHIPALAGKVLRFQKAFLTQLDELLTEHRMTWDPAQPPRDLTEAFLAEMEKAKGNPESSFNDENLRIVVADLFSAGMVTTSTTLAWGLLLMILHPDVQRRVQQEIDDVIGQVRRPEMGDQAHMPYTTAVIHEVQRFGDIVPLGVTHMTSRDIEVQGFRIPKGTTLITNLSSVLKDEAVWEKPFRFHPEHFLDAQGHFVKPEAFLPFSAGRRACLGEPLARMELFLFFTSLLQHFSFSVPTGQPRPSHHGVFAFLVSPSPYELCAVPR
notes: purchased BD Gentest Corp. (Woburn, MA, USA)
B1: in series [1], the Michaelis constant (Km) – broadly, the substrate concentration at which the rate is half of its maximum – came out at 13.76 ± 3.09 µM and the kcat came out at 2.78 ± 0.36 μmol·min^−1·nmol^−1 CYP.

B2: CYP1A2 (Homo sapiens) (protein)
chain: MALSQSVPFSATELLLASAIFCLVFWVLKGLRPRVPKGLKSPPEPWGWPLLGHVLTLGKNPHLALSRMSQRYGDVLQIRIGSTPVLVLSRLDTIRQALVRQGDDFKGRPDLYTSTLITDGQSLTFSTDSGPVWAARRRLAQNALNTFSIASDPASSSSCYLEEHVSKEAKALISRLQELMAGPGHFDPYNQVVVSVANVIGAMCFGQHFPESSDEMLSLVKNTHEFVETASSGNPLDFFPILRYLPNPALQRFKAFNQRFLWFLQKTVQEHYQDFDKNSVRDITGALFKHSKKGPRASGNLIPQEKIVNLVNDIFGAGFDTVTTAISWSLMYLVTKPEIQRKIQKELDTVIGRERRPRLSDRPQLPYLEAFILETFRHSSFLPFTIPHSTTRDTTLNGFYIPKKCCVFVNQWQVNHDPELWEDPSEFRPERFLTADGTAINKPLSEKMMLFGMGKRRCIGEVLAKWEIFLFLAILLQQLEFSVPPGVKVDLTPIYGLTMKHARCEHVQARLRFSIN
notes: as for B1
On to B2, for which, in series [2], the Michaelis constant (Km) turned out to be 9.45 ± 2.11 µM and the kcat is 2.45 ± 0.25 μmol·min^−1·nmol^−1 CYP.

The values are drawn from publication PMC7509555, “An In Vitro Study for Evaluating Permeability and Metabolism of Kurarinone” (Evidence-based Complementary and Alternative Medicine : eCAM, 2020).
